Data as given in patent publication US20170340698A1, “CYCLIC PEPTIDE SPECIFICALLY BINDING TO APOPTOTIC CELLS AND USE THEREOF” (KYUNGPOOK NATIONAL UNIVERSITY INDUSTRY-ACADEMIC COOPERATION …, priority 2014, published 2017).

Key:
[1] = biological target: histone H1 present on surfaces of apoptotic cells (apoptotic SNU16 human stomach cancer cells) (human) (UniProt P07305); assay: flow cytometry, FITC-peptide on SNU16 cells treated with cetuximab alone for 24 h
[2] = biological target: histone H1 present on surfaces of apoptotic cells (apoptotic SNU16 human stomach cancer cells) (human) (UniProt P07305); assay: flow cytometry, FITC-peptide on SNU16 cells treated with cisplatin and cetuximab in combination for 24 h
[3] = biological target: histone H1 present on surfaces of apoptotic cells (apoptotic SNU16 human stomach cancer cells) (human) (UniProt P07305); assay: flow cytometry, FITC-peptide on SNU16 cells treated with cisplatin alone for 24 h

Row | Substance | percentage of apoptotic cells detected (peptide-bound fluorescent cells) [1] [%] | percentage of apoptotic cells detected (peptide-bound fluorescent cells) [2] [%] | percentage of apoptotic cells detected (peptide-bound fluorescent cells) [3] [%]
1 | cyclic form of ApoPep-1 (cyclo[Cys-Gln-Arg-Pro-Pro-Arg-Cys] peptide) | 49 | 78 | 56
2 | linear form of ApoPep-1 (CQRPPR) (peptide) | 25 | 34 | 28
